Laboratory results reported in patent JP2014141434A (dated 2014).

Tests used:
[1] = target: T1, 全長ヒトROBO4 (pCI−hROBO4導入細胞) (human, UniProt Q8WZ75 28-1007); assay: flow cytometry, hybridoma supernatant on hROBO4-transfected HEK293T cells against mock cells
T1 construct: Expressed from pCI-hROBO4 on HEK293 / HEK293T cells; also called human ROBO4
T1 sequence: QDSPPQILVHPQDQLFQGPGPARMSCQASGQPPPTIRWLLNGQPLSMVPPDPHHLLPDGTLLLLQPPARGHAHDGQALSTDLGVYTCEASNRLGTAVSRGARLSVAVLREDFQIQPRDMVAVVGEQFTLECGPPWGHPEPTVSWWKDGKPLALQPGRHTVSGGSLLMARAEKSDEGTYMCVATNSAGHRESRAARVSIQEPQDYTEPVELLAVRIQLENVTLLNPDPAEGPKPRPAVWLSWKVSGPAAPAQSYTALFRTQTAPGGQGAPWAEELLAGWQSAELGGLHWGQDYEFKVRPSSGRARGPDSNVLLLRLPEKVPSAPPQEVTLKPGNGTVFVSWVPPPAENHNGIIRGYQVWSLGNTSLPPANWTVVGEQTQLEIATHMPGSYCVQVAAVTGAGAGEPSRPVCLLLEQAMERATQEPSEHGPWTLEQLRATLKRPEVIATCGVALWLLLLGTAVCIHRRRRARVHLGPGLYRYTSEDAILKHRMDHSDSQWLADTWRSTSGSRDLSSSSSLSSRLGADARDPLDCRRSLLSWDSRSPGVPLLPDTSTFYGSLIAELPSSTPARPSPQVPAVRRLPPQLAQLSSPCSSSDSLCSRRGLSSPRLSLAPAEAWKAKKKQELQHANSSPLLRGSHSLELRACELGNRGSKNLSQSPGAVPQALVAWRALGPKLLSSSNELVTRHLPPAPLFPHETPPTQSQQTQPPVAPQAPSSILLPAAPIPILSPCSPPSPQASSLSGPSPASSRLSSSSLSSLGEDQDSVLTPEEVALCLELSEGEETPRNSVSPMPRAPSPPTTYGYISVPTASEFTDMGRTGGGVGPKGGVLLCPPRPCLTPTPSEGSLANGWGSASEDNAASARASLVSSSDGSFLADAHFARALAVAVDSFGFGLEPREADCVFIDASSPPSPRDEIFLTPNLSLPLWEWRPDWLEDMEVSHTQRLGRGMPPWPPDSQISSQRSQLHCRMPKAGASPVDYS

[2] = target: T2, N末端FLAG−tag付加型ヒトROBO4細胞外領域ドメイン欠損体 hROBO4−341 (human, UniProt Q8WZ75 341-1007); assay: flow cytometry, transfected HEK293 cells
T2 construct: On HEK293 cells; also called pCI−FLAG−hROBO4−341; pCI−hROBO4−341
T2 sequence: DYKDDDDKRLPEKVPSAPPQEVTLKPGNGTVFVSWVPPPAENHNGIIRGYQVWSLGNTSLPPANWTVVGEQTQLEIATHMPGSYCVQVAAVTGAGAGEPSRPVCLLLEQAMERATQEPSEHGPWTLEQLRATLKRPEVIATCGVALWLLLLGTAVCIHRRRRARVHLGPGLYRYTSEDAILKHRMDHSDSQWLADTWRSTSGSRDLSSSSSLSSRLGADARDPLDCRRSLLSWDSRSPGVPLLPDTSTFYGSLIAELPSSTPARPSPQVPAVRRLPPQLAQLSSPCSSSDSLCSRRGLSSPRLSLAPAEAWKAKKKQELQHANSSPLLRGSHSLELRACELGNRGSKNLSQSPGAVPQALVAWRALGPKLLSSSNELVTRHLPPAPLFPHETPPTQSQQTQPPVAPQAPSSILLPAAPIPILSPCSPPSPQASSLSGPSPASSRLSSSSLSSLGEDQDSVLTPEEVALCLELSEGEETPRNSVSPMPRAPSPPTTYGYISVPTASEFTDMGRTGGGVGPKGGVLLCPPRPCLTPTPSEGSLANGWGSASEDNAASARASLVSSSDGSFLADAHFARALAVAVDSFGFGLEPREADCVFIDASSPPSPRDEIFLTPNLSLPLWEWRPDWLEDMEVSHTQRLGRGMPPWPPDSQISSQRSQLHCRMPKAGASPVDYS

[3] = target: T3, N末端FLAG−tag付加型全長ヒトROBO4 hROBO4−28 (human, UniProt Q8WZ75 28-1007); assay: flow cytometry, transfected HEK293 cells, 10 μg/mL
T3 construct: On HEK293 cells; also called pCI−FLAG−hROBO4−28
T3 sequence: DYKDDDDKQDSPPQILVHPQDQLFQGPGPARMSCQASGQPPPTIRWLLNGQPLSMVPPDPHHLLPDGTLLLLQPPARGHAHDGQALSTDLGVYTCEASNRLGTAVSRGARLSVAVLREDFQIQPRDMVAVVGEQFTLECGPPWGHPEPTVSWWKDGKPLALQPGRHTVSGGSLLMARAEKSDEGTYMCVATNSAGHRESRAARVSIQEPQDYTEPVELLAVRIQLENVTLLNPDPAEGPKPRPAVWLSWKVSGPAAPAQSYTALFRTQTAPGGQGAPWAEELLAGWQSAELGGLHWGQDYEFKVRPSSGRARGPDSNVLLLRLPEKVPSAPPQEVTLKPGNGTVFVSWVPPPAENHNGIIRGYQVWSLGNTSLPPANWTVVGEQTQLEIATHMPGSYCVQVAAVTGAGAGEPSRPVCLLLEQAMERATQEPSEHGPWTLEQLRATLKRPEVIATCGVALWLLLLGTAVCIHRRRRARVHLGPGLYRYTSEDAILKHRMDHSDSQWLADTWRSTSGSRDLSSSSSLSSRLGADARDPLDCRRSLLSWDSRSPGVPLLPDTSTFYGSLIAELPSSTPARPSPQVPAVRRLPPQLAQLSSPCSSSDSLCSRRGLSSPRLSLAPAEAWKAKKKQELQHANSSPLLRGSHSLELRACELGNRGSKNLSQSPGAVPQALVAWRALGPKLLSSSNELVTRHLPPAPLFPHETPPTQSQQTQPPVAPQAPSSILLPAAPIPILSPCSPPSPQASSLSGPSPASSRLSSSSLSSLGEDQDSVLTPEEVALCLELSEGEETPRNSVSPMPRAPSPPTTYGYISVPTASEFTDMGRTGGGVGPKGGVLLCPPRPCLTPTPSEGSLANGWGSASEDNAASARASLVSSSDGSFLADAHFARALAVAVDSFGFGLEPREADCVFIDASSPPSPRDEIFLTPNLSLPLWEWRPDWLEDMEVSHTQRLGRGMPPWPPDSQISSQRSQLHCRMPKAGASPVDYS

binding result [1]: binds
binding result [2]: no binding (tested: 10 μg/mL)
binding result [3]: binds
B1: 抗ROBO4マウスモノクローナル抗体 MAb1 (antibody, V domains shown)
VH: EVQLVESGGGLVKPGGSLKLSCAASGFTFSTYAMSWVRQTPEKRLEWVATISNGGTYTYYPDSVKGRFTISRDNAENTLYLQMSSLRSEDTAMYFCARLIYYDYLDYWGHGTTLTVSS
VL: DAVMTQTPLSLPVSLGDQASISCRSSQSLENSNGNTYLNWYFQKPGQSPQLLIYRVSNRFSGVLDRFSGSGSGTDFTLKISRVEAEDFGVYFCLQVTHVPWTFGGGTKLEIKR
notes: Mouse IgG1 (gamma 1) / kappa from a hybridoma; The constant regions are not in the listing; also called MAb1
